Experimental data published in the supplement of paper PMC12042874.
± gives the uncertainty stated by the source.

Assay: amyloid nucleation score (Sup35N fusion, yeast selection) (log enrichment); library NNK3; higher = more nucleation; inactive = no reads after selection
Summary of the method: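 Nucleation score: DiMSum log enrichment of output over input reads, centred on the mode score of non-aggregating sequences. Only sequences with at least 100 input reads were kept. Reads came from Illumina sequencing of plasmid inserts before and after 7 days of growth at 30°C without adenine and uracil, in psi-negative yeast expressing Sup35N fused to peptides of 20 random codons after 24 hours of induction with 100 μM copper sulfate.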

Row | Substance | amyloid nucleation score
1 | KDFGRLLLN | inactive
2 | PECFVTGIRGTSCCRESVD | inactive
3 | LFDRTLL | inactive
4 | SRELNYVVAWIL | inactive
5 | SMDWHAYLDRILLYVRSHS | inactive
6 | YSCVWNGKWCYYSTANDLS | inactive
7 | FLIKNMY | inactive
8 | NIWVQ | inactive
9 | MFMRIRSLIE | inactive
10 | ENMIRFLRDSLCGSFYNLPL | inactive
11 | LFGFLYFVV | -0.564 ± 0.82
12 | ASRGRRLCSLYTHEGGSS | inactive
13 | ALMGHE | inactive
14 | FYGLYFYHSVH | inactive
15 | KYIIWLLDDSDLI | inactive
16 | RPFKFMKLFHIMCVVDVYCM | inactive
17 | LLFQL | inactive
18 | YYIPFASFVSQTCY | inactive
19 | YYGMMYEGGYAVIDIGLGHL | inactive
20 | WFNTTNSGVEP | inactive
21 | LTSLVLVLLLCSTRNGNGTC | 1.55 ± 0.085
22 | GPDYHKHYRTYLPRTAFVGF | 1.27 ± 0.17
23 | RYGVWLTCYVRAKLM | inactive

Row | Substance | amyloid nucleation score
24 | FDNFADNRLNKVSYKYQT | 1.27 ± 0.12
25 | TLHIF | inactive
26 | RGLHLGSSTWIPTAREC | 0.678 ± 0.19
27 | LWHSYFSFYLCVTFENRVIN | 2.79 ± 0.052
28 | DCERVFSYMRKDQVPPVTLS | inactive
29 | LVYKLDVNCYDRNLLDSVEK | inactive
30 | VFVLCSSLYEGFTYYRWISF | inactive
31 | VQVLYVICLSSSMLYRLVVR | inactive
32 | SFLCLISIHCTDNDNGMHNC | inactive
33 | VLQYECHVDMCRGRWSLGAI | inactive
34 | RYCVFSLT | inactive
35 | FVEYSSVQYAACNLDRLFLF | inactive
36 | VPISHLFSLVLVRPRMTSRY | inactive
37 | LLIFMFCLAFVFFFMAKDGN | inactive
38 | ISILDLSSTF | inactive
39 | YTRSCSMRLF | inactive
40 | FFASRENPSFHFVSFWTYTW | inactive
41 | LIPSKRTSDRLFLGPATLDF | inactive
42 | RDCCYLTFALVPSHGLLKVK | inactive
43 | FLYDVFPSPGLMMVLWFGLC | inactive
44 | KLVWRERICEDGFYIKTTFL | inactive
45 | MHPCSL | inactive
46 | VDEADVRKHMT | inactive

Row | Substance | amyloid nucleation score
47 | SVRWMTGRFVGCRRNQVQFR | 0.505 ± 0.38
48 | CMIELRSR | inactive
49 | CVWAYLRLHGKWAF | 0.598 ± 0.34
50 | LFLRTEKIRFRSTRLVTLSC | inactive
51 | FNHSRYDSVFWFVVHPSYEG | inactive
52 | MVSDIGWYLLQFTERRSCFY | inactive
53 | NDLWIEMFKS | inactive
54 | MFMVAIGAYEGCSGRRHREV | -0.238 ± 0.64
55 | CGFAHFRNVALGWWYGVTLN | inactive
56 | DNYMRILGLSYPGDFISNFW | inactive
57 | DVDFPSFAGFMVTISIGIFV | inactive
58 | MYLITGAFLCIHQHG | 1.71 ± 0.075
59 | FLRMHVRGFDTFRARQ | inactive
60 | RPAIRSFFVMVSVKLR | inactive
61 | QEYSGHATSGAHMRWAYSVE | inactive
62 | LFAAYCFVYDIQFTRVPGAW | inactive
63 | SVLMA | inactive
64 | LFFCHYILY | 1.58 ± 0.087
65 | GLAVNNRPDCEVSSLNRLLM | inactive
66 | SRISKMSELIYRLRYIVILV | inactive
67 | IDELLSLQLHRIHKLLEMHG | inactive
68 | KGDCQWVVPYVIHSNHVRAG | inactive
69 | MSSHFSSKAFGFHYGF | inactive

Row | Substance | amyloid nucleation score
70 | CFKSIITMNFYINWYFVSSP | inactive
71 | KFGFCDIMKGLFRRMLGLKV | -1.06 ± 1.3
72 | SYRKEYYKLGHYSRRMQATS | inactive
73 | AACNIN | inactive
74 | CLYRGGFSFYDFSGFCVLSS | inactive
75 | CTSCILYFLLIYYHYNSS | inactive
76 | ISSAYPRNICRVCGPRTR | inactive
77 | YYGGVLVSHRKPSGVCYGYG | inactive
78 | CFLGVSNMHIGWFGVR | 0.838 ± 0.12
79 | LRMSTSGIPYYMSGMSYYNI | inactive
80 | ECLMDGSTAFSMMFFYNYML | inactive
81 | MRSMVKLSCDERVCFVISGE | inactive
82 | LLYVICPVRINLRHWRATDS | 0.487 ± 0.17
83 | TVEQYWRNEREWF | inactive
84 | STSNFYLWGKPNVLAGMR | inactive
85 | VRLTTWLAYNLMVSSDTMFC | inactive
86 | TLLGNINPLLW | inactive
87 | STFMYVCWRPTYGSYYQTVR | inactive
88 | MNFVPTLRSIVVGRWRDLEV | inactive
89 | VVSLESSAVVNGWLWVLAGA | inactive
90 | MIQIIMLEGGLSCLRHLVIT | -0.362 ± 0.8
91 | YCRCLCMLYG | inactive
92 | SIVRIFIIN | 2.27 ± 0.056

Row | Substance | amyloid nucleation score
93 | RSEVQHKLVSFLSKLIPRAS | inactive
94 | ARVKWMVGEIWCQSDDKPLE | inactive
95 | HLVYWVIHDLYMTI | 0.303 ± 0.33
96 | IHTGKMLTYCFKSNLSVRTS | inactive
97 | QFRFSFASYFMRSVSIGWIG | inactive
98 | VNCLLSRWCGRHA | inactive
99 | LTWYREDLYVRSWSCYWDQR | inactive
100 | VFSVHVWQCSNLFQRMLCNF | 1.06 ± 0.14
101 | VSFFDQTKASGYSLRLMLFM | inactive
102 | VGVFSIMV | inactive
103 | VYVGVLVFITWYLSSLYNWA | inactive
104 | KARWYFIVLNVVTHSWDSKV | inactive
105 | GSSRPVVSLTSDLRRCVGKD | inactive
106 | NMFCVPYVKVESGCIMKRGN | 1.91 ± 0.06
107 | AKVKIWAWASIGCPPMQALV | inactive
108 | DSLRWDYRL | inactive
109 | ASKALIWCLSRCIDLVVLRE | inactive
110 | TLSCYECPVVVRILVVRNCV | inactive
111 | KCKFNWVCEVVR | inactive
112 | HRPGFAGGHLWTVFKYVR | inactive
113 | GSLGAMKNQTTASQGAEGAL | inactive
114 | CNFERFALCDYLSVLFNFQR | 1.54 ± 0.13
115 | TSVDGLCSFMDLRL | inactive

Row | Substance | amyloid nucleation score
116 | RHLTVWLL | inactive
117 | HPCPK | inactive
118 | GNFRSELITMVSCTMECRFL | inactive
119 | QPPHKARGACYIRVFYRCTG | 0.226 ± 0.68
120 | WLELVSCS | inactive
121 | IYSTVSYQGTVWRKYWQMNG | inactive
122 | TLRDKNLLEPIKCDWYTIKT | inactive
123 | IDLRVTRNIFQSATLLMFFW | inactive
124 | GSISMFNKG | inactive
125 | KRLFIILIWKFCTGLCFL | inactive
126 | SCWYETMLFSLCKFKYLGLM | inactive
127 | FFIYKFYPFRGISLSAVRIR | inactive
128 | TVLVAGIGCEWSMGESTAMW | inactive
129 | NRQMLYILEINSIIFIQSFC | 0.903 ± 0.16
130 | QNVRLTMLLFRNKVYS | inactive
131 | ICYSNDSLYMLLESS | inactive
132 | VKYSLALVSGNRARGYRRCG | inactive
133 | EFIALSVFLLNFVSCLWSNV | inactive
134 | ATFYSFLRFKQINNRNNEAF | inactive
135 | RFRFILRCC | inactive
136 | REVPT | inactive
137 | VWPQNLNPICKSNLTRCVGC | inactive
138 | NSLCKLGFFSMVKYV | inactive

Row | Substance | amyloid nucleation score
139 | NMCSFFFRVSPVLQVQVSLV | 1.61 ± 0.075
140 | CKFCFSAIFSLLYNRIGAPQ | inactive
141 | TYTWKVTNSTISQLFGYLAD | inactive
142 | LDSGISNHPNFIFTHTEFIN | inactive
143 | PKALVFNLEDDLQGIWSVT | 2.1 ± 0.079
144 | WEFSVMSRCRKGHYTALFVV | inactive
145 | LCPIAMCCSG | inactive
146 | NNYTSPMHRFRSNLFHCVSA | inactive
147 | LDILVRETDQSLWDFQLSSV | 0.499 ± 0.13
148 | CEFTAPVICLISLCYVGRSR | 1.09 ± 0.094
149 | HEYSSKILMM | inactive
150 | KITIKFYRCTS | inactive
151 | HRFAGTKVALYGVKLGGARY | inactive
152 | IYVGKRNSCRPSSEDSVGNR | 0.402 ± 0.38
153 | VRFYVLSPKDFWAFLKILFR | inactive
154 | MDFCRRQIMLVVAFSCRLWL | inactive
155 | VLPNYPSFNSSYICWYFWYL | inactive
156 | SENSRRSLSAYFLQYGLWFW | inactive
157 | SYMITLLKVIILSWHTYAVM | inactive
158 | MRSSIPIYVLMLIALSENSP | inactive
